Measurements as given in the supplement of paper PMC7877785.
± gives the uncertainty stated by the source.

Test: self-splicing fitness, log relative to wild type (ln ratio); higher = more splicing; Tetrahymena group I intron in knt gene, E. coli kanamycin selection, DiMSum; sequences stand for … in CUCUCU…GGAGGGAAAAGUUAUCAGGCAUGCACCUGGUAGCUAGUCUUUAAACCAAUAGAUUGCAUCGGUUUAAAAGGCAAGACCGUCAAAUUGCGGGAAAGGGGUCAACAGCCGUUCAGUACCAAGUCUCAGGGGAAACUUUGAGAUGGCCUUGCAAAGGGUAUGGUAAUAAGCUGACGGACAUGGUCCUAACCACGCAGCCAAGUCCUAAGUCAACAGAUCUUCUGUUGAUAUGGAUGCAGUUCACAGACUAAAUGUCGGUCGGGGAAGAUGUAUUCUUCUCAUAAGAUAUAGUCGGACCUCUCCUUAAUGGGAGCUAGCGGAUGAAGUGAUGCAACACUGGAGCCGCUGGGAACUAAUUUGUAUGCGAAAGUAUAUUGAUUAGUUUUGGAGUACUCGUGGUCG
How it was run: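 Fitness was computed with DiMSum as the error-weighted combination of replicate fold changes, kanamycin versus none, each normalised to wild type. The library randomised all eight intron nucleotides of the P1ex region, with the intron placed in the knt kanamycin-resistance gene on pET-22b(+) in E. coli BL21(DE3). Six replicate transformations were grown overnight at 37°C or 30°C on LB agar with or without 25 μg/mL kanamycin, plus 100 μg/mL carbenicillin, 50 μM IPTG and 0.2% rhamnose. Pooled colonies were amplicon-sequenced on an Illumina HiSeq 2500.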

Sequence | self-splicing fitness (ln) (30 °C) | self-splicing fitness (ln) (37 °C)
AGGAAGCAAUAUUACGUGCU | -2.18 ± 0.17 | -0.868 ± 0.16
AGGAAGCAAUAUUACGUGGU | -3.36 ± 0.15 | -2.61 ± 0.25
AGGCAGCAAUAUUACGAACC | -0.0701 ± 0.18 | -1.03 ± 0.2
AGGCAGCAAUAUUACGAUCU | 0.0214 ± 0.086 | 0.2 ± 0.12
AGGCAGCAAUAUUACGCAAA | -1.43 ± 0.15 | -1 ± 0.2
AGGCAGCAAUAUUACGCAAU | -2.26 ± 0.14 | -1.76 ± 0.094
AGGCAGCAAUAUUACGCCCA | -0.718 ± 0.094 | -0.205 ± 0.15
AGGCAGCAAUAUUACGCCUA | -1.98 ± 0.23 | -0.0372 ± 0.14
AGGCAGCAAUAUUACGCGCG | -0.446 ± 0.12 | -0.358 ± 0.14
AGGCAGCAAUAUUACGCGUG | -2.48 ± 0.13 | -0.717 ± 0.11
AGGCAGCAAUAUUACGCUAU | -1.45 ± 0.088 | -0.464 ± 0.092
AGGCAGCAAUAUUACGCUCA | -0.172 ± 0.079 | 0.0289 ± 0.12
AGGCAGCAAUAUUACGCUCC | -3.69 ± 0.4 | -2.01 ± 0.33
AGGCAGCAAUAUUACGGCGC | -1.13 ± 0.11 | 0.292 ± 0.18
AGGCAGCAAUAUUACGGCUU | -2.17 ± 0.12 | -1.83 ± 0.16
AGGCAGCAAUAUUACGGGAA | -3.59 ± 0.23 | -2.42 ± 0.18
AGGCAGCAAUAUUACGGGUC | -2.67 ± 0.17 | -3.01 ± 0.22
AGGCAGCAAUAUUACGGUAA | -2.35 ± 0.088 | -1.75 ± 0.076
AGGCAGCAAUAUUACGUCGA | -0.305 ± 0.043 | -0.0427 ± 0.055
AGGCAGCAAUAUUACGUGAU | -2.2 ± 0.14 | -0.983 ± 0.13
AGGCAGCAAUAUUACGUGGU | -3.88 ± 0.14 | -1.54 ± 0.1

Sequence | self-splicing fitness (ln) (30 °C) | self-splicing fitness (ln) (37 °C)
AGGCAGCAAUAUUACGUUAA | -2.6 ± 0.15 | -1.88 ± 0.13
AGGGAGCAAUAUUACGAAAG | -1.91 ± 0.14 | -2.14 ± 0.24
AGGGAGCAAUAUUACGACUA | -2.2 ± 0.5 | -1.98 ± 0.32
AGGGAGCAAUAUUACGAGAC | -3.09 ± 0.4 | -2.77 ± 0.36
AGGGAGCAAUAUUACGAUGC |  | -2.65 ± 0.41
AGGGAGCAAUAUUACGCCGA | -2.38 ± 0.25 | 
AGGGAGCAAUAUUACGCUGG | -4.26 ± 0.37 | -1.67 ± 0.26
AGGGAGCAAUAUUACGGCGC | -2.78 ± 0.5 | -1.23 ± 0.35
AGGGAGCAAUAUUACGGCUU | -3.29 ± 0.25 | -1.11 ± 0.35
AGGGAGCAAUAUUACGGGAA | -1.37 ± 0.38 | -2.58 ± 0.37
AGGGAGCAAUAUUACGGGGA | -3.29 ± 0.34 | -2.64 ± 0.48
AGGGAGCAAUAUUACGUAAG | -3.17 ± 0.2 | -2.28 ± 0.3
AGGGAGCAAUAUUACGUAUG | -2.98 ± 0.3 | -2.37 ± 0.49
AGGGAGCAAUAUUACGUCAC | -2.07 ± 0.24 | -2.69 ± 0.26
AGGGAGCAAUAUUACGUGGG | -3.31 ± 0.2 | 
AGGGAGCAAUAUUACGUUUA | -2.68 ± 0.33 | -2.33 ± 0.31
AGGGAGCAAUAUUACGUUUC |  | -2.44 ± 0.24
AGGUAGCAAUAUUACGAAGG | -3.908 ± 0.034 | -2.86 ± 0.046
AGGUAGCAAUAUUACGAAGU | -3.22 ± 0.026 | -1.56 ± 0.037
AGGUAGCAAUAUUACGACAU | 0 ± 0.009 | 
AGGUAGCAAUAUUACGAGAU | -3.178 ± 0.023 | -1.91 ± 0.036

Sequence | self-splicing fitness (ln) (30 °C) | self-splicing fitness (ln) (37 °C)
AGGUAGCAAUAUUACGAGCA | -1.33 ± 0.019 | -0.51 ± 0.034
AGGUAGCAAUAUUACGGAAC | -3.629 ± 0.035 | -2.2 ± 0.042
AGGUAGCAAUAUUACGGAAU | -2.678 ± 0.019 | -1.29 ± 0.035
AGGUAGCAAUAUUACGGACA | -0.694 ± 0.017 | -0.397 ± 0.034
AGGUAGCAAUAUUACGGAUU | -1.553 ± 0.014 | -0.618 ± 0.033
AGGUAGCAAUAUUACGGUAC | -3.522 ± 0.032 | -2.07 ± 0.04
AGGUAGCAAUAUUACGUAGA | -3.995 ± 0.028 | -2.07 ± 0.036
AGGUAGCAAUAUUACGUAGG | -3.667 ± 0.026 | -2.71 ± 0.039
AGGUAGCAAUAUUACGUCUA | -0.666 ± 0.015 | -0.259 ± 0.033
AGUAAGCAAUAUUACGAACC | -1.74 ± 0.21 | 1.04 ± 0.23
AGUAAGCAAUAUUACGAAGA | -2.88 ± 0.28 | -2.82 ± 0.35
AGUAAGCAAUAUUACGACCG | -1.03 ± 0.17 | -0.428 ± 0.2
AGUAAGCAAUAUUACGACGG | -3.42 ± 0.27 | -1.94 ± 0.2
AGUAAGCAAUAUUACGAGCU | -2.23 ± 0.14 | -1.98 ± 0.13
AGUAAGCAAUAUUACGCAGC | -3.52 ± 0.32 | -1.8 ± 0.3
AGUAAGCAAUAUUACGCCAA | -3.35 ± 0.29 | -2.6 ± 0.24
AGUAAGCAAUAUUACGCCAU | -2.81 ± 0.2 | -1.93 ± 0.22
AGUAAGCAAUAUUACGCCCA | -1.19 ± 0.37 | 
AGUAAGCAAUAUUACGCCUU | -1.74 ± 0.12 | -0.241 ± 0.14
AGUAAGCAAUAUUACGCGGC |  | -3.37 ± 0.42
